In patent publication US20240377408A1 (ENCODIA, published 2024):
Ends that are not written are not given here. * marks the point of attachment. Benzoyl(4-SO2NH2) = NS(=O)(=O)c1ccc(C(=O)*)cc1; M65 = not defined here; M67 = not defined here; M75 = not defined here; M76 = not defined here; M88 = not defined here

B1: (SAB)AAAAE (peptide)
peptide: {Benzoyl(4-SO2NH2)}-AAAAE-NH2
SMILES: C[C@H](NC(=O)c1ccc(S(N)(=O)=O)cc1)C(=O)N[C@@H](C)C(=O)N[C@@H](C)C(=O)N[C@@H](C)C(=O)N[C@@H](CCC(=O)O)C(N)=O
B2: (SAB)FAAAE (peptide)
peptide: {Benzoyl(4-SO2NH2)}-FAAAE-NH2
SMILES: C[C@H](NC(=O)[C@H](C)NC(=O)[C@H](Cc1ccccc1)NC(=O)c1ccc(S(N)(=O)=O)cc1)C(=O)N[C@@H](C)C(=O)N[C@@H](CCC(=O)O)C(N)=O
B3: (SAB)HAAAE (peptide)
peptide: {Benzoyl(4-SO2NH2)}-HAAAE-NH2
SMILES: C[C@H](NC(=O)[C@H](C)NC(=O)[C@H](Cc1c[nH]cn1)NC(=O)c1ccc(S(N)(=O)=O)cc1)C(=O)N[C@@H](C)C(=O)N[C@@H](CCC(=O)O)C(N)=O
B4: (SAB)LAAAE (peptide)
peptide: {Benzoyl(4-SO2NH2)}-LAAAE-NH2
SMILES: CC(C)C[C@H](NC(=O)c1ccc(S(N)(=O)=O)cc1)C(=O)N[C@@H](C)C(=O)N[C@@H](C)C(=O)N[C@@H](C)C(=O)N[C@@H](CCC(=O)O)C(N)=O
B5: (SAB)SAAAE (peptide)
peptide: {Benzoyl(4-SO2NH2)}-SAAAE-NH2
SMILES: C[C@H](NC(=O)[C@H](C)NC(=O)[C@H](CO)NC(=O)c1ccc(S(N)(=O)=O)cc1)C(=O)N[C@@H](C)C(=O)N[C@@H](CCC(=O)O)C(N)=O
B6: (SAB)EAAAE (peptide)
peptide: {Benzoyl(4-SO2NH2)}-EAAAE-NH2
SMILES: C[C@H](NC(=O)[C@H](C)NC(=O)[C@H](CCC(=O)O)NC(=O)c1ccc(S(N)(=O)=O)cc1)C(=O)N[C@@H](C)C(=O)N[C@@H](CCC(=O)O)C(N)=O
B7: (SAB)AFAAE (peptide)
peptide: {Benzoyl(4-SO2NH2)}-AFAAE-NH2
SMILES: C[C@H](NC(=O)c1ccc(S(N)(=O)=O)cc1)C(=O)N[C@@H](Cc1ccccc1)C(=O)N[C@@H](C)C(=O)N[C@@H](C)C(=O)N[C@@H](CCC(=O)O)C(N)=O
B8: M75-AAEIR (peptide)
peptide: M75-AAEIR
modifications: reading uncertain; also: printed as M75-AAEIR
B9: M76-AAEIR (peptide)
peptide: M76-AAEIR
modifications: reading uncertain; also: printed as M76-AAEIR
B10: M88-AAEIR (peptide)
peptide: M88-AAEIR
modifications: reading uncertain; also: printed as M88-AAEIR
B11: M65-AAEIR (peptide)
peptide: M65-AAEIR
modifications: reading uncertain; also: printed as M65-AAEIR
B12: M67-AAEIR (peptide)
peptide: M67-AAEIR
modifications: reading uncertain; also: printed as M67-AAEIR

biological target: T1, human carbonic anhydrase 2 (wild-type hCAII) (Homo sapiens, UniProt P00918 4-259); experiment: cell-based or functional assay

Q: Which “IC50 (µM), hCAII functional assay (p-nitrophenyl acetate hydrolysis)” value (“IC50 (µM) … (p-nitrophenyl acetate hydrolysis)” for short) does the source give for B1 here?
A: Its value is 0.0484 µM.

Q: For B2, which “IC50 (µM) … (p-nitrophenyl acetate hydrolysis)” value is on record?
A: The value was 0.045 µM.

Q: With B3 as the binder, how does the “IC50 (µM) … (p-nitrophenyl acetate hydrolysis)” value read?
A: Its value is 0.148 µM.

Q: For B4, which “IC50 (µM) … (p-nitrophenyl acetate hydrolysis)” value is on record?
A: Its value is 0.0284 µM.

Q: For B5, which “IC50 (µM) … (p-nitrophenyl acetate hydrolysis)” value is on record?
A: The value was 0.153 µM.

Q: With B6 as the binder, how does the “IC50 (µM) … (p-nitrophenyl acetate hydrolysis)” value read?
A: Its value is 0.0993 µM.

Q: B7 was tested. Which “IC50 (µM) … (p-nitrophenyl acetate hydrolysis)” value did it give?
A: The value was 0.183 µM.

biological target: T1, human carbonic anhydrase 2 (wild-type …); experiment: cell-based or functional assay; remark: another data set of the same source

Q: For B8, which “NTM-AAEIR IC50 (µM), colorimetric IC50 assay (pNPA hydrolysis by wild-type hCAII)” value (shortened to “NTM-AAEIR IC50 (µM)”) is on record?
A: The value was 0.067 µM.

Q: B9 was tested. Which “NTM-AAEIR IC50 (µM)” value did it give?
A: Its value is 0.077 µM.

Q: How did the “NTM-AAEIR IC50 (µM)” value turn out when B10 was run?
A: Its value is 0.095 µM.

Q: Which “NTM-AAEIR IC50 (µM)” value does the source give for B11 here?
A: Its value is 0.515 µM.

Q: How did the “NTM-AAEIR IC50 (µM)” value turn out when B12 was run?
A: Its value is 0.073 µM.
